The source of these data is the Immune Epitope Database (IEDB).

One assay concerns the target HLA-B*53:01. Put plainly: IEDB peptide-MHC binding, purified MHC/competitive/radioactivity; filed as Kd, often an IC50 or EC50 that approximates it; ≥ and ≤ were set here for values at or beyond the usual limits of such assays.
Another assay addresses HLA-B*51:01. The description is as above.
Assay [1] addresses HLA-B*15:01. The description is as above.
Assay [2] has as its target HLA-B*07:02. The description is as above.
A further assay addresses HLA-B*46:01. Put plainly: IEDB peptide-MHC binding, purified MHC/direct/fluorescence; filed as Kd, often an IC50 or EC50 that approximates it; ≥ and ≤ were set here for values at or beyond the usual limits of such assays. The note with it: source organism: Yellow fever virus.
In another assay the target is HLA-A*01:01. Nature of the assay: IEDB peptide-MHC binding, purified MHC/competitive/radioactivity; filed as Kd, often an IC50 or EC50 that approximates it; ≥ and ≤ were set here for values at or beyond the usual limits of such assays.
The target in another assay is HLA-A*30:02. Described as above.
The next assay addresses HLA-B*44:02. The assay is described as above.
Another assay concerns the target HLA-B*44:03. The assay is described as above.
The target of a further assay is HLA-A*24:02. The assay is described as above.
A further assay addresses HLA-A*26:01. The description is as above.
Assay [3] has as its target HLA-B*07:02. Nature of the assay: IEDB peptide-MHC binding, purified MHC/direct/fluorescence; filed as Kd, often an IC50 or EC50 that approximates it; ≥ and ≤ were set here for values at or beyond the usual limits of such assays.
In assay [4] the target is HLA-B*15:01. The description is as above. The following applies: source organism: Salmonella enterica subsp. enterica serovar Typhimurium.
The next assay addresses HLA-B*58:01. The description is as above. The note with it: source organism: Salmonella enterica subsp. enterica serovar Typhimurium.
The next assay concerns the target HLA-A*02:01. The description is as above. The note with it: source organism: Salmonella enterica subsp. enterica serovar Typhimurium.
Setting [5] is: source organism: Dengue virus 3 Martinique/1243/1999.
The mark [6] stands for this setting: source organism: Dengue virus 4 Philippines/H241/1956.
Where [7] appears, read: source organism: Vaccinia virus WR.
Where [8] appears, read: source organism: Dengue virus 1 Brazil/97-11/1997.
The mark [9] stands for this setting: source organism: Dengue virus 2 Jamaica/1409/1983.
Where [10] appears, read: source organism: Dengue virus 4 Dominica/814669/1981.
[11] abbreviates: source organism: Dengue virus 2 Peru/IQT2913/1996.
Setting [12] is: source organism: Dengue virus 1 Singapore/S275/1990.
[13] abbreviates: source organism: Mammarenavirus brazilense.

Consider PPTAGVLARW, for which the dissociation constant Kd with HLA-B*53:01 (setting [5]) worked out at 4930 nM.
In the case of MPLVMAWRT, the dissociation constant (Kd) with HLA-B*51:01 (setting [6]) worked out at 693 nM; in the assay with HLA-B*53:01 (setting [6]), 88.4 nM.
Turning to FILTAILFF, the dissociation constant Kd with HLA-B*15:01 [1] (setting [7]) came out at 181 nM.
In the case of VPFCSHHFHQ, the dissociation constant (Kd) in the assay with HLA-B*51:01 (setting [8]) was no less than 69600 nM; with HLA-B*07:02 [2] (setting [8]) it was no less than 20900 nM.
Regarding KSKKYEGPF, the Kd in the assay with HLA-B*15:01 [1] (setting [7]) was 1.86 nM.
SIQDNQVAY: the dissociation constant (Kd) with HLA-B*46:01 was determined as 19700 nM.
As for YSQIGAGVY, the Kd with HLA-A*01:01 (setting [9]) was determined as 63.4 nM; with HLA-A*30:02 (setting [9]) it was 2.03 nM; with HLA-B*15:01 [1] (setting [9]), 15.6 nM.
IANELNYILW: the dissociation constant Kd in the assay with HLA-B*53:01 (setting [5]) stood at 79.9 nM.
For GMMGGLWKY, the dissociation constant Kd with HLA-B*46:01 is no less than 20000 nM.
On to SIGKMFESTY, for which the dissociation constant Kd with HLA-A*01:01 (setting [10]) was determined as 17000 nM; with HLA-A*30:02 (setting [10]) it was 37.4 nM.
Regarding TMKHKKATY, the equilibrium dissociation constant (Kd) in the assay with HLA-A*30:02 (setting [9]) is 1200 nM; in the assay with HLA-B*15:01 [1] (setting [9]), 83.4 nM.
For the sequence TPKGTVMDII, the Kd with HLA-B*07:02 [2] (source organism: Dengue virus 3 Singapore/8120/1995) amounted to 608 nM.
As to WEGSPGKFW, the dissociation constant Kd with HLA-B*44:02 (setting [8]) worked out at 24.4 nM; in the assay with HLA-B*44:03 (setting [8]) it was 53.5 nM.
TMRHKKATY: the Kd is no less than 76900 nM with HLA-A*30:02 (setting [11]) and 442 nM in the assay with HLA-B*15:01 [1] (setting [11]).
For RPGYFTQTA, the Kd with HLA-B*07:02 [2] (setting [8]) turned out to be 4.78 nM.
Regarding YENLKYSVI, the Kd with HLA-B*44:02 (setting [8]) was determined as 90.2 nM.
TPEGEVGAIA: the equilibrium dissociation constant (Kd) in the assay with HLA-B*07:02 [2] (setting [8]) was 14700 nM.
Turning to KVVQPENLEY, the Kd in the assay with HLA-B*15:01 [1] (source organism: Dengue virus 2 16681-PDK53) worked out at 30 nM.
Regarding LAESVKMHM, the equilibrium dissociation constant (Kd) with HLA-B*15:01 [1] (setting [7]) came out at 963 nM.
For VGMGEAAAIF, the Kd with HLA-A*24:02 (setting [8]) came to 8640 nM.
Regarding SEAVNDSRF, the dissociation constant Kd stood at 17.9 nM in the assay with HLA-B*44:02 (setting [6]) and 66.6 nM with HLA-B*44:03 (setting [6]).
For the sequence TWAKNIQTAI, the dissociation constant (Kd) with HLA-A*24:02 (setting [9]) came to 512 nM.
For the sequence MMIDDFGTA, in the assay with HLA-B*15:01 [1] (setting [7]), the Kd stood at 7.6 nM.
With MPVTHSSAAQ, the Kd with HLA-B*51:01 (setting [9]) was no less than 69600 nM; with HLA-B*07:02 [2] (setting [9]) it was no less than 20100 nM.
Regarding QTWMSAEGAW, the equilibrium dissociation constant (Kd) with HLA-B*44:02 (setting [5]) turned out to be 11900 nM.
Take SEMIIPKIYG: the Kd was determined as 9.53 nM with HLA-B*44:02 (setting [12]) and 18.8 nM with HLA-B*44:03 (setting [12]).
LSIPHDLMEF: the dissociation constant (Kd) is no less than 36200 nM with HLA-A*01:01 (setting [6]) and 5.99 nM with HLA-B*15:01 [1] (setting [6]).
As for SPSVEVKLPD, in the assay with HLA-B*07:02 [2] (setting [6]), the equilibrium dissociation constant (Kd) was determined as 205 nM.
WYGMEIRPI: in the assay with HLA-A*24:02 (setting [5]), the equilibrium dissociation constant (Kd) came to 3020 nM.
As for TPVHSWEDI, the Kd in the assay with HLA-B*51:01 (setting [6]) came to 16000 nM; with HLA-B*53:01 (setting [6]), 2220 nM.
With IMILKLLTDF, in the assay with HLA-B*15:01 [1] (setting [12]), the Kd was 12.4 nM.
In the case of DFPGKTVWF, the Kd with HLA-A*24:02 (setting [8]) came to 8800 nM.
Turning to FTPEARNSTF, the dissociation constant (Kd) with HLA-A*26:01 (setting [10]) turned out to be 518 nM; with HLA-A*24:02 (setting [10]), 4150 nM.
LPETLETLL: in the assay with HLA-B*53:01 (setting [9]), the dissociation constant Kd was 918 nM.
As to EKSAAIDGEY, the results for the equilibrium dissociation constant (Kd) in the assay with HLA-A*01:01 (setting [8]), with HLA-A*30:02 (setting [8]) and with HLA-A*26:01 (setting [8]) were 2420 nM, 49.3 nM and 2040 nM, respectively.
Take TPEAKNSTFL: in the assay with HLA-B*07:02 [2] (setting [6]), the equilibrium dissociation constant (Kd) was 1370 nM.
For the sequence ISKIPGGNMY, the equilibrium dissociation constant (Kd) with HLA-A*01:01 (setting [8]) was no less than 27800 nM; in the assay with HLA-A*30:02 (setting [8]), 15.4 nM; with HLA-B*15:01 [1] (setting [8]), 137 nM.
Consider LANTNFFVF, for which the Kd with HLA-B*15:01 [1] (setting [7]) was 17 nM.
With TEMGRLPTF, the Kd turned out to be 10 nM with HLA-B*44:02 (setting [9]) and 24 nM with HLA-B*44:03 (setting [9]).
With MLIEVILTA, the dissociation constant Kd with HLA-B*15:01 [1] (setting [7]) was found to be 207 nM.
In the case of VIIHVIEHL, the Kd with HLA-B*15:01 [1] (setting [7]) came to 1190 nM.
Consider TPQASTTEAI, for which the Kd is no less than 22900 nM in the assay with HLA-B*51:01 (setting [5]) and 45.3 nM with HLA-B*07:02 [2] (setting [5]).
Regarding NEVHTWTEQY, in the assay with HLA-B*44:03 (setting [8]), the Kd turned out to be 137 nM.
As to DPKRYFVPIF, the Kd with HLA-A*01:01 (setting [13]) is no less than 70400 nM; with HLA-A*26:01 (setting [13]) it was no less than 69700 nM.
In the case of YPALMPLY, the Kd with HLA-B*07:02 [2] (source organism: Hepatitis B virus) is no less than 10000 nM.
Consider IPHDLMEFI, for which the values for the equilibrium dissociation constant (Kd) in the assay with HLA-B*51:01 (setting [6]) and with HLA-B*53:01 (setting [6]) were 20.4 nM and 6.39 nM, respectively.
For LPVWLAHKV, the figures for the Kd with HLA-B*51:01 (setting [5]) and with HLA-B*53:01 (setting [5]) were 126 nM and 831 nM, respectively.
For the sequence LAKKTLAPF, the dissociation constant (Kd) with HLA-B*15:01 [1] (setting [7]) was determined as 2.13 nM.
Turning to LLSSTRVPNY, the Kd was found to be 2260 nM in the assay with HLA-A*01:01 (setting [6]) and 2170 nM with HLA-A*30:02 (setting [6]).
In the case of KQTGSASSM, the Kd with HLA-B*15:01 [1] (setting [9]) was 10.8 nM.
For AEMEEALRG, the values for the Kd with HLA-B*44:02 (setting [9]) and with HLA-B*44:03 (setting [9]) were 4.65 nM and 13.2 nM, respectively.
GPRTRGYAI: the Kd in the assay with HLA-B*07:02 [3] (source organism: Mycobacterium tuberculosis) was determined as 9 nM.
Take YFIKHVLAF: the Kd with HLA-B*15:01 [1] (setting [7]) was 2.53 nM.
As for YLGPTIRVW, the Kd in the assay with HLA-B*15:01 [4] turned out to be 1220 nM; with HLA-B*58:01, 127 nM; with HLA-A*02:01 it was 1870 nM; in the assay with HLA-B*07:02 [3] (source organism: Salmonella enterica subsp. enterica serovar Typhimurium), 13200 nM.
For the sequence YLAGAGLLF, the dissociation constant Kd is 2130 nM in the assay with HLA-A*26:01 (setting [9]), 1.86 nM with HLA-B*15:01 [1] (setting [9]) and 28.5 nM with HLA-A*24:02 (setting [9]).
Regarding QQMDPEHRQL, the Kd with HLA-B*15:01 [1] (setting [5]) amounted to 118 nM.
In turn, RPKSNIVLL displayed a dissociation constant (Kd) with HLA-B*07:02 [3] (source organism: Homo sapiens) of 200 nM.
